Here are results for 1 substance from publication PMC4738280, “Transthyretin participates in beta-amyloid transport from the brain to the liver- involvement of the low-density lipoprotein receptor-related protein 1?” (Scientific Reports, 2016).

Assay type in all cases: cell-based, human
One data set has as its system SAHep cells. The experiment in a line: FAM-Aβ1-42 internalization by SAHep cells, flow cytometry. Particulars: FAM-Aβ1-42, 4.5–7.5 μg/mL of h rTTR, 3 hours, 37 °C, N = 3. As to the method:
For the study with hepatocytes, SAHep cells were grown in 6-well plates coated with collagen type I and after 24 hours cells were incubated with FAM-Aβ1-42 in the presence or absence of h rTTR (136 nM) for 3 hours at 37 °C. For primary hepatocytes, after 48 hours of seeding, cells were incubated with FAM-Aβ1-42 (100 nM), with the advantage of no need for TTR addition. For hepatocytes derived from TTR−/− mice, we also examined the effect of h rTTR on FAM-Aβ1-42 internalization. FAM-Aβ1-42 inside SAHep cells and primary hepatocytes was measured by flow cytometry (FACS Canto II, BD Biosciences).
A general note: Flow cytometry measures light scatter and fluorescence of single cells or particles in a stream.

The test system of data set [1] is hCMEC/D3 cells. The experiment in a line: FAM-Aβ1-42 efflux from hCMEC/D3 cells, flow cytometry. Particulars: hCMEC/D3, 10 min loading with FAM-Aβ1-42, then 20 min in FAM-Aβ1-42-free media, 37 °C, mean of N = 3. How it is done: For efflux studies, hCMEC/D3 cells were initially incubated with FAM-Aβ1-42 for 10 minutes and then the media was removed and replaced with FAM-Aβ1-42 -free media, and further incubated for 10 and 20 minutes, at 37 °C. Finally, cells were analyzed by flow cytometry, as described above.

Data set [2] has as its system hCMEC/D3 cells. The data set can be described thus: FAM-Aβ1-42 uptake by hCMEC/D3 cells, flow cytometry. Particulars: hCMEC/D3, FAM-Aβ1-42 500 ng/mL (100 nM), 37 °C. As to the method: For quantification of Aβ1-42 uptake, hCMEC/D3 cells were plated into a 6-well plate coated with collagen type I and grown to confluence. Cells were washed with PBS and incubated for 5, 10, 15 and 30 minutes at 37 °C, with 500 ng/mL of FAM-Aβ1-42 (100 nM) in presence or absence of h rTTR (7.5 μg/mL, 136 nM). After incubation, cells were washed twice with PBS and enzymatically detached using trypsin (Gibco™), and then resuspended cells were centrifuged at 1000 rpm at RT for 5 minutes. The pellet was washed with PBS and cells recentrifuged as described above. Then the pellet was resuspended with PBS, and if necessary fixed with 4% Paraformaldehyde (PFA). Finally, cells were analyzed in FACS Canto II equipment (BD Biosciences) using Blue laser excitation of 488 nm. The flow cytometry data were analyzed using the Flowjo workstation.

On to “FAM-Aβ1-42: Aβ1-42 labeled with 5-(and-6)-Carboxyfluorescenin (FAM), purchased from AnaSpec”, for which the “Uptake of Aβ1-42 peptide by SAHep cells, maximum” value in the data set on SAHep cells was 70%. For the same substance, the “FAM-Aβ1-42 efflux, fluorescent cells remaining” value is listed as 67.6% in the data set on hCMEC/D3 cells [1] (absence of TTR) and 45.5% in the data set on hCMEC/D3 cells [1] (presence of h rTTR). Also, the “FAM-Aβ1-42 uptake, fluorescent cells” value in the data set with hCMEC/D3 cells [2] (5 min, absence and presence of h rTTR 7.5 μg/mL (136 nM), N = 3) is on record as 35–39%; with hCMEC/D3 cells [2] (10 min, absence and presence of h rTTR 7.5 μg/mL, difference not significant, N = 3) it was “over 57%”; in the data set on hCMEC/D3 cells [2] (15 min, absence of TTR, mean of N = 3), 61.7%; in the data set on hCMEC/D3 cells [2] (15 min, presence of h rTTR 7.5 μg/mL (136 nM), mean of N = 3) it was “about 73%”. Further, the “FAM-Aβ1-42 internalization with versus without TTR” value with hCMEC/D3 cells [2] (30 min, h rTTR 7.5 μg/mL versus none, N = 3) is listed as “significantly higher in the presence of TTR”.
